Biological target: T1, IFNAR on 38C13 cells (murine, UniProt P33896 27-590; O35664 22-513)
T1 sequence (looked up) 1: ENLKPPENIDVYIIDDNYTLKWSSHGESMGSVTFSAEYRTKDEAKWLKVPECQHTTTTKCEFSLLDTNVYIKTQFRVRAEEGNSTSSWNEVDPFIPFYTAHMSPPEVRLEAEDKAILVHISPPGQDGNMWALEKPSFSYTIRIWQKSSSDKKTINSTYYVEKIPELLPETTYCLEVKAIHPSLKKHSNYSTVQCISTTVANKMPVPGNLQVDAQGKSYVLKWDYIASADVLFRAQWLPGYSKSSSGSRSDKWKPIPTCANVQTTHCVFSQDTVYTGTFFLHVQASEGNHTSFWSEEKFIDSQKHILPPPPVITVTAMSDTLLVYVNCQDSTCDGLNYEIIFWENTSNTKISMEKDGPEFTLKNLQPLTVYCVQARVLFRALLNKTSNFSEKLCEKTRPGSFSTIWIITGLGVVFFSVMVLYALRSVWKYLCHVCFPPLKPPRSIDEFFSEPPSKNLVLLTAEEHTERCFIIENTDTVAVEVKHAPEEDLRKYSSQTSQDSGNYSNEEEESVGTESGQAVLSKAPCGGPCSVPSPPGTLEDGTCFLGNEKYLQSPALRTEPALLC
T1 sequence (looked up) 2: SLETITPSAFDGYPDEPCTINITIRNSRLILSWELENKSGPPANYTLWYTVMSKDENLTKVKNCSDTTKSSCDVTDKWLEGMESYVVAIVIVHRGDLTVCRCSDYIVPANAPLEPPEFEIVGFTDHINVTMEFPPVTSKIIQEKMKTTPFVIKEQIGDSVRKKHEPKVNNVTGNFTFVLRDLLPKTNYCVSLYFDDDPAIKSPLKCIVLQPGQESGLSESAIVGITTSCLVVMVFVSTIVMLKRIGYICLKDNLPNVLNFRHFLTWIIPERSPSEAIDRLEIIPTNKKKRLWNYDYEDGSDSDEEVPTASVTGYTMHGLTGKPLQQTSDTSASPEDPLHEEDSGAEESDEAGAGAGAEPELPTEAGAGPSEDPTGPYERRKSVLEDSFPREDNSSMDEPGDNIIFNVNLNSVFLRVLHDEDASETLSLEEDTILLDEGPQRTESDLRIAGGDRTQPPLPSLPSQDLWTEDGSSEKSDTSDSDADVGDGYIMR
Test: cell-based or functional assay

B1: anti-CD20/IgG3-mu-IFN-α (other)
heavy: QVQLQQPGAELVKPGASVKMSCKASGYTFTSYNMHWVKQTPGRGLEWIGAIYPGNGDTSYNQKFKGKATLTADKSSSTAYMQLSSLTSEDSAVYYCARSTYYGGDWYFNVWGAGTTVTVSAASTKGPSVFPLAPCSRSTSGGTAALGCLVKDYFPEPVTVSWNSGALTSGVHTFPAVLQSSGLYSLSSVVTVPSSSLGTQTYTCNVNHKPSNTKVDKRVELKTPLGDTTHTCPRCPEPKSCDTPPPCPRCPEPKSCDTPPPCPRCPEPKSCDTPPPCPRCPAPELLGGPSVFLFPPKPKDTLMISRTPEVTCVVVDVSHEDPEVQFKWYVDGVEVHNAKTKLREEQYNSTFRVVSVLTVLHQDWLNGKEYKCKVSNKALPAPIEKTISKAKGQPREPQVYTLPPSREEMTKNQVSLTCLVKGFYPSDIAVEWESNGQPENNYNTTPPMLDSDGSFFLYSKLTVDKSRWQQGNIFSCSVMHEALHNHYTQKSLSLSPGKSGGGGSCDLPQTHNLRNKRALTLLVQMRRLSPLSCLKDRKDFGFPQEKVDAQQIKKAQAIPVLSELTQQILNIFTSKDSSAAWNATLLDSFCNDLHQQLNDLQGCLMQQVGVQEFPLTQEDALLAVRKYFHRITVYLREKKHSPCAWEVVRAEVWRALSSSANVLGRLREEK
light: QIVLSQSPAILSASPGEKVTMTCRASSSVSYIHWFQQKPGSSPKPWIYATSNLASGVPVRFSGSGSGTSYSLTISRVEAEDAATYYCQQWTSNPPTFGGGTKLEIK
- IC50 (pM) 38C13-CD20, cell viability, MTS assay: 76.4 pM
- IC50 (pM) 38C13-CD20-IFNR Knock Down, cell viability, MTS assay: 848 pM
